Key:
[1] = test system: Ren-2 rats; assay: Hemodynamics, hypertrophy and fibrosis in Ren-2 transgenic rats with and without ARB; assay type: in vivo, rat; conditions: 0.05 mg/kg/day candesartan from 7-13 weeks of age
Procedure: Homozygous Ren-2 rats were obtained from the Max-Delbrück-Zentrum für Molekulare Medizin, Berlin, Germany. 30 male Ren-2 rats on a Sprague Dawley (SD) background and 9 age-matched SD rats as controls were studied. Of 30 Ren-2 rats, 8 were sacrificed at 10-weeks of age and 8 were treated with 0.05 mg/kg/day of candesartan, an angiotensin II receptor type I blocker (ARB), from 7-13 weeks of age. Of the remaining 14 untreated Ren-2 rats, 6 were sacrificed at 13 weeks upon the development of clinical signs of heart failure and designated as HF-S rats. The remaining 8 Ren-2 rats were closely monitored and were sacrificed at 17 weeks when clinical signs of failure had not yet appeared. These rats were designated as HF-R rats. Hemodynamic parameters were determined before sacrifice and heart, lung and body weight were measured after the sacrifice. The procedure for care and treatment of animals was approved by the institutional animal care committee. Homozygous Ren-2 rats were obtained from the Max-Delbrück-Zentrum für Molekulare Medizin, Berlin, Germany. We studied 16 male Ren-2 rats and 8 age-matched controls from the non-transgenic background, Sprague Dawley (SD) rats. […] The remaining 4 Ren-2 rats were monitored and were sacrificed at 17 weeks when signs of clinical failure had not appeared. […] Heart, lung and body weight were measured after the sacrifice. […]

[2] = test system: Rat cardiac fibroblasts; assay: Cardiac fibroblast proliferation, methyl-[3H]thymidine incorporation; assay type: cell-based; conditions: 24 hours, control 145±4.8, p<0.01
Procedure: (§1) Rat cardiac fibroblasts were isolated from 2-day-old neonatal Sprague-Dawley rats, as described previously (Pokharel et al., Hypertension, 40: 155-161, 2002). Cells were cultured in Dulbecco's modification of eagle's medium (DMEM) supplemented with 10% foetal bovine serum (FBS), along with 1% L-glutamate, 50 U/mL penicillin, and 0.1 g/L streptomycin, and were incubated at 37° C. in a humidified 5% CO2 atmosphere. Twenty-four hours after seeding, cells were made quiescent by incubation with media containing 0.5% FBS for 24 hours. Cells were then treated with murine recombinant galectin-3 (control, 10 μg/ml and 30 μg/ml) for 24 hours. The number of dividing cells was determined by radio-labelled methyl-[^3H] thymidine incorporation (0.5 μCi per well) assay. Radioactivity was measured in the mixture of fibroblasts and scintillation liquid using LKB-Wallace beta counter (FSA Laboratory Supplies, Loughborough, UK).

[3] = test system: cardiac fibroblasts; assay: Secreted collagen, [3H]proline incorporation assay; assay type: cell-based, rat
Procedure: as §1
Secreted collagen was measured using a [^3H]proline incorporation assay. Briefly, cardiac fibroblasts were seeded in 6-well plates at 90-100% confluency. During the final 24 hours of incubation, 15 μCi/ml of L-[^3H]proline was added. Incorporated [^3H] proline from the condition medium was precipitated with 10% trichloroacetic acid (TCA) and counted with the scintillation counter. Statistical Analyses

Row | Molecule | dP/dtmax ([1]; evaluated at 13 weeks) [mmHg/s] | LV weight/body weight % ([1]; evaluated in sacrificed animals at 13 weeks) [%] | cardiac fibroblast proliferation (thymidine incorporation) ([2]; galectin-3 at 10 μg/ml) [cpm] | cardiac fibroblast proliferation (thymidine incorporation) ([2]; galectin-3 at 30 μg/ml) [cpm] | proline incorporation (collagen production) ([3]; galectin-3 at 10 μg/ml, not significant, p=0.13) [cpm] | increase in proline incorporation ([3]; galectin-3 at 30 μg/ml vs control) | proline incorporation (collagen production) ([3]; galectin-3 at 30 μg/ml, control 707±52.8 cpm, p<0.05) [cpm]
1 | CCOc1nc2cccc(C(=O)O)c2n1Cc1ccc(-c2ccccc2-c2nnn[nH]2)cc1 [candesartan] | 8400±202 | 2.52±0.36 | – | – | – | – | –
2 | galectin-3: murine recombinant galectin-3 added exogenously to rat cardiac fibroblasts (protein, UniProt P16110 2-264, looked up) Galectin-3: ADSFSLNDALAGSGNPNPQGYPGAWGNQPGAGGYPGAAYPGAYPGQAPPGAYPGQAPPGAYPGQAPPSAYPGPTAPGAYPGPTAPGAYPGQPAPGAFPGQPGAPGAYPQCSGGYPAAGPYGVPAGPLTVPYDLPLPGGVMPRMLITIMGTVKPNANRIVLDFRRGNDVAFHFNPRFNENNRRVIVCNTKQDNNWGKEERQSAFPFESGKPFKIQVLVEADHFKVAVNDAHLLQYNHRMKNLREISQLGISGDITLTSANHAMI | – | – | 309±4.8 | 347±17.5 | 992±72 | approximately 66% | 1066±56
